Data as given in PMC8322407 (Communications Biology, 2021).
Values belong to the binder of their own block, whether it stands above or below them.

Experiments:
[1] = target: the molecule itself; assay: cryo-EM structure; hArg1 and full-length mAb mixed at 3:1 molar ratio in 25 mM HEPES pH 7.4, 150 mM NaCl, 1.0 mM MnCl2, incubated 30 min; diluted to ~75 uM monomeric arginase, DDM added to the CMC
[2] = target: T1, Human Arginase 1 (hArg1), trimeric (human, UniProt P05089); assay: enzyme inhibition kinetics; Thioarginine to thioornithine assay; 1 nM human or mouse arginase incubated 30 min at room temperature with fixed antibody concentrations, variable thioarginine; 50 mM Tris pH 7.5, 50 mM NaCl, 1 mM Mn chloride, 0.05% BSA; competitive inhibition model; conditions: both partners purified
T1 construct: Human arginase 1, full-length, untagged; trimeric metalloenzyme, each monomer ~35 kDa; buffers contained MnCl2 (the SPR buffer contained 3 mM EDTA); also called trimeric hArg1; human Arg1; source: E. coli BL21 (DE3), purified (heat treatment, HiTrap-SP, Superdex 200)

[3] = target: T1, Human Arginase 1 (hArg1), trimeric; assay: SPR; Antibody captured on an anti-mouse IgG or anti-human Fc surface (CM5 chip, Biacore T200 or 4000); human ARG1 injected, twofold dilutions from 100 nM; 10 mM HEPES, 150 mM NaCl, 0.05% P20, 3 mM EDTA, pH 7.4; 25 °C; 1:1 binding model; conditions: both partners purified
[4] = target: T2, Monomeric hArg1 (Arg308 mutated to alanine) (Homo sapiens (Human)., UniProt P05089, Arg308 to an alanine residue); assay: as above; conditions: both partners purified
T2 construct: Human arginase 1 with Arg308 at the monomer interface mutated to alanine, which gives a monomer; also called monomeric human ARG1

[5] = target: T1, Human Arginase 1 (hArg1), trimeric; assay: cryo-EM structure; hArg1 and full-length mAb mixed at 3:1 molar ratio in 25 mM HEPES pH 7.4, 150 mM NaCl, 1.0 mM MnCl2, incubated 30 min; diluted to ~75 uM monomeric arginase, DDM added to the CMC; conditions: both partners purified
mouse Arg1 = target: T3, mouse Arg1 (Mus musculus (Mouse)., UniProt Q61176); assay: enzyme inhibition kinetics; Thioarginine to thioornithine assay; 1 nM human or mouse arginase incubated 30 min at room temperature with fixed antibody concentrations, variable thioarginine; 50 mM Tris pH 7.5, 50 mM NaCl, 1 mM Mn chloride, 0.05% BSA; competitive inhibition model; conditions: both partners purified
T3 construct: Mouse arginase 1; construct not described; also called mouse arginase
T3 sequence (Q61176 whole entry): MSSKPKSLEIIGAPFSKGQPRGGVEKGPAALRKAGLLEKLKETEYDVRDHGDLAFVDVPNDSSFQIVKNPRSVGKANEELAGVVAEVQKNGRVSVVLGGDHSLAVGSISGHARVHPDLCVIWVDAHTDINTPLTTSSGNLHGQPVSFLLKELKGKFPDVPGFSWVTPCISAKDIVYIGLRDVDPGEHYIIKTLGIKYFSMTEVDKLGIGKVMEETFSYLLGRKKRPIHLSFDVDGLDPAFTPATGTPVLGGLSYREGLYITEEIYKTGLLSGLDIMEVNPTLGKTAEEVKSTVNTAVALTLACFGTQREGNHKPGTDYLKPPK

B1: Human Arginase 1 (hArg1), trimeric (enzyme, UniProt P05089 1-322, looked up)
chain: MSAKSRTIGIIGAPFSKGQPRGGVEEGPTVLRKAGLLEKLKEQECDVKDYGDLPFADIPNDSPFQIVKNPRSVGKASEQLAGKVAEVKKNGRISLVLGGDHSLAIGSISGHARVHPDLGVIWVDAHTDINTPLTTTSGNLHGQPVSFLLKELKGKIPDVPGFSWVTPCISAKDIVYIGLRDVDPGEHYILKTLGIKYFSMTEVDRLGIGKVMEETLSYLLGRKKRPIHLSFDVDGLDPSFTPATGTPVVGGLTYREGLYITEEIYKTGLLSGLDIMEVNPSLGKTPEEVTRTVNTAVAITLACFGLAREGNHKPIDYLNPPK
notes: Human arginase 1, full-length, untagged; trimeric metalloenzyme, each monomer ~35 kDa; buffers contained MnCl2 (the SPR buffer contained 3 mM EDTA); also called trimeric hArg1; human Arg1; source: E. coli BL21 (DE3), purified (heat treatment, HiTrap-SP, Superdex 200)
stoichiometry N [1]: 3

B2: mAb1 (antibody, V domains shown)
VH: QVQLVQSGAEVKKPGASVKVSCKASGYTFTNYGISWVRQAPGQGLEWMGWISAYNGNTNYAQKLQGRVTMTTDTSTSTAYMELRSLRSDDTAVYYCAREGAYGYRSPYHNWFDPWGQGTLVTVSS
VL: EIVMTQSPATLSLSPGERATLSCRASQSVSSYLAWYQQKPGQAPRLLIYDASNRATGIPARFSGSGSGTDFTLTISSLEPEDFAVYYCQQHSLLPRTFGGGTKVEIK
notes: Human heavy chain variable domain from yeast display; heavy chain of the Fab in PDB 7LEX and 7LEZ; Mouse IgG2a heavy chain constant region (backbone); Human light chain variable domain from yeast display; light chain of the Fab in PDB 7LEX and 7LEZ; Mouse kappa light chain constant region (mouse IgG2a/kappa backbone); Full-length mAb, human variable regions on a mouse IgG2a/kappa backbone; The Fc …
Ki [2]: 3.3 ± 0.3 nM

B5: mAb5 (antibody, V domains shown)
VH: EVQLVESGGGVVRPGGSLRLSCAASGFTFDDYGMTWVRQAPGKGLEWVSGINWNGGSTGYADSVKGRFTISRDNAKNSLYLQMNSLRAEDTALYHCARDRRRGSYGSDAFDIWGQGTMVTVSS
VL: DIQMTQSPSSLSASVGDRVTITCRASQGISNYLAWYQQKPGKVPQLLISAASTLQSGVPSRFSGSGSGTDFTLTISSLQPEDVATYYCQKYNSAPRTFGQGTKVEIK
notes: Human heavy chain variable domain from a transgenic (Trianni) mouse immunization; heavy chain of the Fab in PDB 7LEY; Human light chain variable domain from a transgenic (Trianni) mouse immunization; light chain of the Fab in PDB 7LEY; Mouse kappa light chain constant region (mouse IgG1 D265A/kappa backbone); Full-length mAb, human variable regions on a mouse IgG1 D265A/kappa backbone; source: …
binding result [5]: binds
Ki (mouse Arg1): 25 ± 1.7 nM

Next, values leading:

Ki [2]: 5.3 ± 0.8 nM
B3: mAb2 (antibody, V domains shown)
VH: QVQLVQSGAEVKKPGASVKVSCKASGYTFTNYGISWVRQAPGQGLEWMGWISAYNGNTNYAQKLQGRVTMTTDTSTSTAYMELRSLRSDDTAVYYCAREGAYGYRSPYHNWFDPWGQGTLVTVSS
VL: EIVMTQSPATLSLSPGERATLSCRASQSVSSYLAWYQQKPGQAPRLLIYDASNRATGIPARFSGSGSGTDFTLTISSLEPEDFAVYYCQQHSLLPRTFGGGTKVEIK
notes: Human heavy chain variable domain, identical to that of m3 (mAb1); heavy chain of the Fab in PDB 7LF0; Human light chain variable domain, identical to that of m3 (mAb1); light chain of the Fab in PDB 7LF0; Mouse kappa light chain constant region (mouse IgG1 D265A/kappa backbone); Full-length mAb; differs from mAb1 only in the constant domains; also called mAbs1-3 (member); source: ExpiCHO-S, …

Kd [3]: 0.56 nM
Kd [4]: 20 nM
B4: mAb4 (antibody, V domains shown)
VH: EVQLVQSGAEVKKPGASVKVSCKASGYTFTDYYMNWVRQAPGQGLEWIGVISPYNGGTTYNQKFKGKATLTVDKSTSTAYMELSSLRSEDTAVYYCVYDLYYFDYWGQGTLVTVSS
VL: EIVLTQSPATLSLSPGERATLSCRASQRISNDLHWYQQKPGQAPRLLIKYASQSISGIPSRFSGSGSGTDFTLTISSLEPEDFAVYYCQQSNSWPRTFGGGTKLEIK
